Key:
[1] = target: 5'FAM-labeled F14.5 peptide; experiment: fluorescence polarisation; 20 nM 5'FAM-labeled peptide with rising concentrations of Streptavidin/StrepTactin, triplicates; ES2 buffer (100 mM potassium phosphate pH 7.4, 100 μg/ml bovine γ globulin, 0.02% NaN3); at least 2 h at RT or o/n at 4 °C
[2] = target: 5'FAM-labeled Strep-tag II peptide; experiment: as above

Substance Recombinant StrepTactin, unconjugated has a Kd [1] of 44.3 µM and a Kd [2] of 430 nM.

Source: paper PMC5463365, “Assembly and use of high-density recombinant peptide chips for large-scale ligand screening is a practical alternative to synthetic peptide libraries” (BMC Genomics, 2017)
